Test results reported in the supplement of paper PMC7125110.
± gives the standard error. Variants at the floor of the assay were thinned out.

B1: glmS ribozyme (parent)
chain: AUAAAAGCGCCAGAACUACAGAAAUGUAGUUGACGAGGAGGAGGUUUAUCGAAUUUUCGGCGGAUGCCUCCAAA

Assays:
Conditions in all cases: with glucosamine-6-phosphate
[1] = variants of: B1; assay: self-cleavage kobs at 40 uM GlcN6P; higher = faster cleavage; RNA array
Summary of the method: (§1)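 Tiles of sequenced MiSeq chips were imaged over ~14 h at 37 °C. On them, barcoded ribozyme variants had been transcribed in situ by E. coli RNA polymerase and were tracked via a hybridised Cy3 probe while glucosamine-6-phosphate (40 μM to 10 mM) in HEPES/KCl/Mg(OAc)2 buffer flowed in. Per-tile medians, normalised to baseline and to non-cleaving reference variants, were fit to one- or two-exponential decays for kobs, and weighted Michaelis–Menten fits gave kcat and KM.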

[2] = variants of: B1; assay: self-cleavage kobs at 2500 uM GlcN6P; higher = faster cleavage; RNA array
Summary of the method: as §1

[3] = variants of: B1; assay: self-cleavage kobs at 10000 uM GlcN6P; higher = faster cleavage; RNA array
Summary of the method: as §1

[4] = variants of: B1; assay: self-cleavage kobs at 160 uM GlcN6P; higher = faster cleavage; RNA array
Summary of the method: as §1

[5] = variants of: B1; assay: self-cleavage kobs at 640 uM GlcN6P; higher = faster cleavage; RNA array
Summary of the method: as §1

Variant | self-cleavage kobs at 40 uM GlcN6P [1] | self-cleavage kobs at 2500 uM GlcN6P [2] | self-cleavage kobs at 10000 uM GlcN6P [3] | self-cleavage kobs at 160 uM GlcN6P [4] | self-cleavage kobs at 640 uM GlcN6P [5]
G9A U47C G51U G63A | < 1e-05 s⁻¹ | < 1e-05 s⁻¹ | < 1e-05 s⁻¹ |  | 
C10A G59C | < 1e-05 s⁻¹ | < 1e-05 s⁻¹ | < 1e-05 s⁻¹ | < 1e-05 s⁻¹ | < 1e-05 s⁻¹
C8U G59A | < 1e-05 s⁻¹ |  | < 1e-05 s⁻¹ | < 1e-05 s⁻¹ | < 1e-05 s⁻¹
G9A C34G U46C C61U G62U | < 1e-05 s⁻¹ |  |  |  | 
C10A C11U U69G | 4.43e-05 ± 2.1e-05 s⁻¹ |  | 5.88e-05 ± 1.5e-05 s⁻¹ |  | 
G9U A42U | < 1e-05 s⁻¹ | < 1e-05 s⁻¹ |  | < 1e-05 s⁻¹ | < 1e-05 s⁻¹
C8G U46A C70G | < 1e-05 s⁻¹ |  |  |  | 
G9U A14C A52C | < 1e-05 s⁻¹ | < 1e-05 s⁻¹ | < 1e-05 s⁻¹ |  | 
G9C U54A | < 1e-05 s⁻¹ |  | < 1e-05 s⁻¹ | < 1e-05 s⁻¹ | 
C8U A14G G37A A39U G40U U47A C58G U65G C70U | < 1e-05 s⁻¹ | < 1e-05 s⁻¹ |  |  | 
G9A G35U | < 1e-05 s⁻¹ |  |  | < 1e-05 s⁻¹ | < 1e-05 s⁻¹
G9A A12U G13C G40C | < 1e-05 s⁻¹ |  | < 1e-05 s⁻¹ |  | 
C10A U31A C58G C67A | 4.23e-05 ± 1.8e-05 s⁻¹ | 0.000317 ± 0.00016 s⁻¹ | 3.62e-05 ± 1.5e-05 s⁻¹ |  | 0.00013 ± 3.4e-05 s⁻¹
C10A A36U C68G | 8.85e-05 ± 2.9e-05 s⁻¹ |  | 6.62e-05 ± 2.1e-05 s⁻¹ |  | 
C10G A12U U30G | < 1e-05 s⁻¹ |  |  |  | 
C10A G51C | < 1e-05 s⁻¹ |  | < 1e-05 s⁻¹ |  | < 1e-05 s⁻¹
G9C U57A | < 1e-05 s⁻¹ | < 1e-05 s⁻¹ |  |  | < 1e-05 s⁻¹
C8U G32C | < 1e-05 s⁻¹ | < 1e-05 s⁻¹ | < 1e-05 s⁻¹ | < 1e-05 s⁻¹ | < 1e-05 s⁻¹
C8G U30G G60A | < 1e-05 s⁻¹ |  | < 1e-05 s⁻¹ |  | 
G9A U47C | < 1e-05 s⁻¹ | < 1e-05 s⁻¹ |  | < 1e-05 s⁻¹ | < 1e-05 s⁻¹
C8G U30C | < 1e-05 s⁻¹ | < 1e-05 s⁻¹ | < 1e-05 s⁻¹ |  | 
G9U G41C A42U G44A | < 1e-05 s⁻¹ | < 1e-05 s⁻¹ |  | < 1e-05 s⁻¹ | < 1e-05 s⁻¹
G9C G66A | < 1e-05 s⁻¹ |  | < 1e-05 s⁻¹ |  | < 1e-05 s⁻¹

Variant | self-cleavage kobs at 40 uM GlcN6P [1] | self-cleavage kobs at 2500 uM GlcN6P [2] | self-cleavage kobs at 10000 uM GlcN6P [3] | self-cleavage kobs at 160 uM GlcN6P [4] | self-cleavage kobs at 640 uM GlcN6P [5]
G9U G29A U30A C67U | < 1e-05 s⁻¹ |  |  |  | 
C8U U30C | < 1e-05 s⁻¹ | < 1e-05 s⁻¹ | < 1e-05 s⁻¹ | < 1e-05 s⁻¹ | < 1e-05 s⁻¹
C8G U55C | < 1e-05 s⁻¹ |  |  | < 1e-05 s⁻¹ | < 1e-05 s⁻¹
C8G U55A | < 1e-05 s⁻¹ | < 1e-05 s⁻¹ | < 1e-05 s⁻¹ |  | < 1e-05 s⁻¹
G9U C58A | < 1e-05 s⁻¹ |  | < 1e-05 s⁻¹ |  | 
G9U G13A A36U G38A U65G | < 1e-05 s⁻¹ |  | < 1e-05 s⁻¹ |  | 
G9U G40C | < 1e-05 s⁻¹ |  | < 1e-05 s⁻¹ | < 1e-05 s⁻¹ | < 1e-05 s⁻¹
C10A U47G G63C C68G | 9.61e-05 ± 3.8e-05 s⁻¹ |  |  |  | 
C8U A53C | < 1e-05 s⁻¹ | < 1e-05 s⁻¹ | < 1e-05 s⁻¹ | < 1e-05 s⁻¹ | < 1e-05 s⁻¹
G9C G51A A52U C70G | < 1e-05 s⁻¹ |  |  |  | < 1e-05 s⁻¹
C10G A14C C70U | < 1e-05 s⁻¹ |  |  |  | 
C8U C16U U46A G63A | < 1e-05 s⁻¹ |  | < 1e-05 s⁻¹ |  | 
C8U U57G | < 1e-05 s⁻¹ | < 1e-05 s⁻¹ |  |  | 
C8G U56G C70U C71A | < 1e-05 s⁻¹ | < 1e-05 s⁻¹ |  | < 1e-05 s⁻¹ | < 1e-05 s⁻¹
C8U A52U C58U A64C C70U | < 1e-05 s⁻¹ | < 1e-05 s⁻¹ |  | < 1e-05 s⁻¹ | 
C8G G63U | < 1e-05 s⁻¹ |  | < 1e-05 s⁻¹ |  | 
C8G G63A | < 1e-05 s⁻¹ | < 1e-05 s⁻¹ | < 1e-05 s⁻¹ | < 1e-05 s⁻¹ | < 1e-05 s⁻¹
C8G U46G | < 1e-05 s⁻¹ | < 1e-05 s⁻¹ | < 1e-05 s⁻¹ | < 1e-05 s⁻¹ | < 1e-05 s⁻¹
G9C U56G | < 1e-05 s⁻¹ | < 1e-05 s⁻¹ | < 1e-05 s⁻¹ | < 1e-05 s⁻¹ | < 1e-05 s⁻¹
G9C G41C | < 1e-05 s⁻¹ | < 1e-05 s⁻¹ | < 1e-05 s⁻¹ | < 1e-05 s⁻¹ | < 1e-05 s⁻¹
C10A C16G U31G G38A C61U | < 1e-05 s⁻¹ |  | < 1e-05 s⁻¹ |  | 
C10A C50G G63C | 0.000128 ± 3.3e-05 s⁻¹ | 7.48e-05 ± 2.8e-05 s⁻¹ | 4.91e-05 ± 1.8e-05 s⁻¹ |  | 
G9C U47G | < 1e-05 s⁻¹ |  | < 1e-05 s⁻¹ |  | 

Variant | self-cleavage kobs at 40 uM GlcN6P [1] | self-cleavage kobs at 2500 uM GlcN6P [2] | self-cleavage kobs at 10000 uM GlcN6P [3] | self-cleavage kobs at 160 uM GlcN6P [4] | self-cleavage kobs at 640 uM GlcN6P [5]
C8U C10G | < 1e-05 s⁻¹ |  | < 1e-05 s⁻¹ |  | < 1e-05 s⁻¹
G9C U45G | < 1e-05 s⁻¹ | < 1e-05 s⁻¹ |  | < 1e-05 s⁻¹ | < 1e-05 s⁻¹
C10A C61U | < 1e-05 s⁻¹ | < 1e-05 s⁻¹ |  |  | 
C10A A36U | < 1e-05 s⁻¹ | < 1e-05 s⁻¹ | < 1e-05 s⁻¹ | < 1e-05 s⁻¹ | < 1e-05 s⁻¹
C8U G13U | < 1e-05 s⁻¹ | < 1e-05 s⁻¹ | < 1e-05 s⁻¹ |  | < 1e-05 s⁻¹
G9U G32U G41U A53C | < 1e-05 s⁻¹ |  | < 1e-05 s⁻¹ |  | 
C10A A64U | < 1e-05 s⁻¹ | < 1e-05 s⁻¹ | < 1e-05 s⁻¹ |  | < 1e-05 s⁻¹
G9A G40C | < 1e-05 s⁻¹ |  |  | < 1e-05 s⁻¹ | < 1e-05 s⁻¹
C10A U47A | < 1e-05 s⁻¹ |  |  | < 1e-05 s⁻¹ | < 1e-05 s⁻¹
C8U C50A G51A U69G | 0.00046 ± 0.00016 s⁻¹ |  | 0.000709 ± 0.00014 s⁻¹ |  | 
C8U C58U C67U U69C | 0.00084 ± 0.00041 s⁻¹ |  | 0.000669 ± 0.00018 s⁻¹ |  | 
G9U A36U | < 1e-05 s⁻¹ |  | < 1e-05 s⁻¹ |  | < 1e-05 s⁻¹
G9U A36C | < 1e-05 s⁻¹ | < 1e-05 s⁻¹ | < 1e-05 s⁻¹ |  | < 1e-05 s⁻¹
G9C G43A | < 1e-05 s⁻¹ |  | < 1e-05 s⁻¹ |  | 
C8U G9C G35U C61G | < 1e-05 s⁻¹ |  |  |  | 
C8U A52G G63U | < 1e-05 s⁻¹ |  | < 1e-05 s⁻¹ |  | 
G9A C10G G13U A48U G51U G66C | < 1e-05 s⁻¹ |  |  |  | 
C10G A33C | < 1e-05 s⁻¹ | < 1e-05 s⁻¹ | < 1e-05 s⁻¹ | < 1e-05 s⁻¹ | 
G9U C16U A52G C67G | 0.000158 ± 3.7e-05 s⁻¹ |  | 0.000546 ± 0.00017 s⁻¹ |  | 
C8G G59C | < 1e-05 s⁻¹ |  | < 1e-05 s⁻¹ |  | < 1e-05 s⁻¹
G9A U45C | < 1e-05 s⁻¹ |  | < 1e-05 s⁻¹ | < 1e-05 s⁻¹ | 
G9C G13U | < 1e-05 s⁻¹ | < 1e-05 s⁻¹ | < 1e-05 s⁻¹ | < 1e-05 s⁻¹ | < 1e-05 s⁻¹
C8U G41A | < 1e-05 s⁻¹ | < 1e-05 s⁻¹ | < 1e-05 s⁻¹ | < 1e-05 s⁻¹ | < 1e-05 s⁻¹

Variant | self-cleavage kobs at 40 uM GlcN6P [1] | self-cleavage kobs at 2500 uM GlcN6P [2] | self-cleavage kobs at 10000 uM GlcN6P [3] | self-cleavage kobs at 160 uM GlcN6P [4] | self-cleavage kobs at 640 uM GlcN6P [5]
C8G U31C G35C | < 1e-05 s⁻¹ |  | < 1e-05 s⁻¹ |  | 
G9U G60U C71G | < 1e-05 s⁻¹ |  |  |  | 
G9A A53C | < 1e-05 s⁻¹ | < 1e-05 s⁻¹ | < 1e-05 s⁻¹ | < 1e-05 s⁻¹ | < 1e-05 s⁻¹
G9U A39U | < 1e-05 s⁻¹ |  |  |  | 
G9A C16G | < 1e-05 s⁻¹ | < 1e-05 s⁻¹ |  | < 1e-05 s⁻¹ | < 1e-05 s⁻¹
G9A G13C U45G U57A | < 1e-05 s⁻¹ |  | < 1e-05 s⁻¹ |  | 
C10A U49A | < 1e-05 s⁻¹ |  |  | < 1e-05 s⁻¹ | < 1e-05 s⁻¹
G9C G43U G44U C58A C71A | < 1e-05 s⁻¹ |  |  |  | 
G9A C11A | < 1e-05 s⁻¹ |  |  | < 1e-05 s⁻¹ | 
G9C C70U | < 1e-05 s⁻¹ | < 1e-05 s⁻¹ | < 1e-05 s⁻¹ | < 1e-05 s⁻¹ | < 1e-05 s⁻¹
C10A G37C G38A A64U U65C | < 1e-05 s⁻¹ | < 1e-05 s⁻¹ |  |  | 
C8U U30G A36G C68U | < 1e-05 s⁻¹ |  |  | < 1e-05 s⁻¹ | 
C10A C34G A42G C70G | < 1e-05 s⁻¹ |  | < 1e-05 s⁻¹ |  | 
C8G G51U A64G | < 1e-05 s⁻¹ |  | < 1e-05 s⁻¹ |  | 
G9A C58G | < 1e-05 s⁻¹ | < 1e-05 s⁻¹ |  | < 1e-05 s⁻¹ | < 1e-05 s⁻¹
G9U C11G | < 1e-05 s⁻¹ | < 1e-05 s⁻¹ | < 1e-05 s⁻¹ |  | 
G9U A52G | < 1e-05 s⁻¹ |  | < 1e-05 s⁻¹ | < 1e-05 s⁻¹ | 
C8U A48C | < 1e-05 s⁻¹ |  | < 1e-05 s⁻¹ |  | < 1e-05 s⁻¹
C8U C68G | 0.000619 ± 0.00023 s⁻¹ |  | 0.000231 ± 5.8e-05 s⁻¹ |  | 
C8U U54A | < 1e-05 s⁻¹ | < 1e-05 s⁻¹ | < 1e-05 s⁻¹ | < 1e-05 s⁻¹ | < 1e-05 s⁻¹
G9U U45G A53G G62U | < 1e-05 s⁻¹ |  | < 1e-05 s⁻¹ |  | 
G9U A12U A33G G40U | < 1e-05 s⁻¹ |  |  |  | 
C8G U31C A39G | < 1e-05 s⁻¹ |  |  |  | 
